The text below walks through data of US20190119388A1 (GREEN CROSS, published 2019).

Common to all, as to experiment: cell-based or functional assay
Test [1] deals with epidermal growth factor receptor (EGFR) on gastric cancer cell lines NCI-N87, AGS and NUGC3 (UniProt P00533).
The target in test [2] is T1, epidermal growth factor receptor (EGFR) on gastric cancer cell lines NCI-N87, AGS and NUGC3 (UniProt P00533 25-1210, limits assumed).
The target in test [3] is T1, epidermal growth factor receptor (EGFR) …. This is another data set of the same source.
The target is the same in test [4]. This is another data set of the same source.
The target is the same in test [5]. The source holds these as a separate data set.
For test [6] the target is unchanged. The source holds these as a separate data set.
Test [7] shares this target. The source holds these as a separate data set.

On to “HB-EGF (heparin binding-EGF-like growth factor) (from UniProt Q99075 63-148) (ligand)”, for which, in test [1], the increase of cell invasion (NUGC3, HB-EGF 10 ng/ml) came out at 2.3 fold; the increase of cell invasion (NUGC3, HB-EGF 20 ng/ml) came out at 3.5 fold; the increase of cell invasion (NUGC3, HB-EGF 50 ng/ml) is 4.8 fold; the increase of invasion against control (AGS, HB-EGF 10 ng/ml) turned out to be 4.1 fold. In test [1], this molecule returned an increase of invasion against control (AGS, HB-EGF 20 ng/ml) of 4.5 fold and an increase of invasion against control (AGS, HB-EGF 50 ng/ml) of 3.9 fold.
Consider “TGF-α (transforming growth factor-α) (from UniProt P01135 40-89) (ligand)”, for which, in test [1], the increase of cell invasion (NUGC3, TGF-α 10 ng/ml) was found to be 1.7 fold; the increase of cell invasion (NUGC3, TGF-α 20 ng/ml) came out at 1.9 fold; the increase of cell invasion (NUGC3, TGF-α 50 ng/ml) was 1.9 fold; the increase of invasion against control (AGS, TGF-α 10 ng/ml) came to 1.8 fold. In test [1], this molecule came in with an increase of invasion against control (AGS, TGF-α 20 ng/ml) of 1.8 fold and an increase of invasion against control (AGS, TGF-α 50 ng/ml) of 1.9 fold.
Regarding “AREG (amphiregulin) (from UniProt P15514 101-198) (ligand)”, in test [1], the increase of cell invasion (NUGC3, AREG 200 ng/ml) stood at 1.3 fold and the increase of cell invasion (NUGC3, AREG 500 ng/ml) was found to be 1.5 fold.

B1: GC1118 (antibody, human IgG1, kappa, V domains shown)
VH: EVQLVESGGGVVQPGGSLRLSCAASGFTFSDYDMSWIRQAPGKGLEWVSGILGGSERSYYRDSVKGRFTISRDNSRKTLYLQMNSLRAEDTAVYYCARHGSPGYTLYAWDYWGQGTTVTVSS
VL: DIVMTQTPLSLPVTPGEPASISCRSNQDLTHSNGNTYLEWYLQKPGQSPRLLIYKVSNRFSGVPDRFSGSGAGTDFTLRISRVEAEDVGVYYCMQGTHWPWTFGQGTKVDIKR
As for B1, in test [2], the “invaded cells relative to AREG alone, % of OD (AGS, AREG 1,000 ng/ml, antibody 1 µg/ml), Average (%)” value was 55.4%; the “invaded cells relative to AREG alone, % of OD (AGS, AREG 1,000 ng/ml, antibody 1 µg/ml), set 1-1” value was determined as 55.3%; the “invaded cells relative to AREG alone, % of OD (AGS, AREG 1,000 ng/ml, antibody 1 µg/ml), set 1-2” value is 61.3%; the “invaded cells relative to AREG alone, % of OD (AGS, AREG 1,000 ng/ml, antibody 1 µg/ml), set 2-1” value was determined as 51.8%. For the same molecule, in test [2], the “invaded cells relative to AREG alone, % of OD (AGS, AREG 1,000 ng/ml, antibody 1 µg/ml), set 2-2” value came to 53.1%. In addition, in test [3], the “invaded cells relative to HB-EGF alone, % of OD (AGS, HB-EGF 20 ng/ml, antibody 1 µg/ml), Average (%)” value turned out to be 49.6%; the “invaded cells relative to HB-EGF alone, % of OD (AGS, HB-EGF 20 ng/ml, antibody 1 µg/ml), set 1-1” value turned out to be 50.6%; the “invaded cells relative to HB-EGF alone, % of OD (AGS, HB-EGF 20 ng/ml, antibody 1 µg/ml), set 1-2” value amounted to 56.8%; the “invaded cells relative to HB-EGF alone, % of OD (AGS, HB-EGF 20 ng/ml, antibody 1 µg/ml), set 2-1” value is 57.7%. In test [3], the “invaded cells relative to HB-EGF alone, % of OD (AGS, HB-EGF 20 ng/ml, antibody 1 µg/ml), set 2-2” value turned out to be 64.2%; the “invaded cells relative to HB-EGF alone, % of OD (AGS, HB-EGF 20 ng/ml, antibody 1 µg/ml), set 3-1” value was determined as 33.3%; the “invaded cells relative to HB-EGF alone, % of OD (AGS, HB-EGF 20 ng/ml, antibody 1 µg/ml), set 3-2” value amounted to 34.9%. In test [4], the “invaded cells relative to HB-EGF alone, % of OD (NUGC3, HB-EGF 50 ng/ml, antibody 1 µg/ml), Average (%)” value amounted to 39.2%; the “invaded cells relative to HB-EGF alone, % of OD (NUGC3, HB-EGF 50 ng/ml, antibody 1 µg/ml), set 1-1” value came to 18.8%; the “invaded cells relative to HB-EGF alone, % of OD (NUGC3, HB-EGF 50 ng/ml, antibody 1 µg/ml), set 1-2” value is 21%; the “invaded cells relative to HB-EGF alone, % of OD (NUGC3, HB-EGF 50 ng/ml, antibody 1 µg/ml), set 2-1” value turned out to be 57.7%. Further, in test [4], the “invaded cells relative to HB-EGF alone, % of OD (NUGC3, HB-EGF 50 ng/ml, antibody 1 µg/ml), set 2-2” value came out at 64.2%; the “invaded cells relative to HB-EGF alone, % of OD (NUGC3, HB-EGF 50 ng/ml, antibody 1 µg/ml), set 3-1” value was determined as 41.7%; the “invaded cells relative to HB-EGF alone, % of OD (NUGC3, HB-EGF 50 ng/ml, antibody 1 µg/ml), set 3-2” value came to 31.9%. In test [5], the “invaded cells relative to TGF-α alone, % of OD (AGS, TGF-α 20 ng/ml, antibody 1 µg/ml), Average (%)” value came to 44.1%; the “invaded cells relative to TGF-α alone, % of OD (AGS, TGF-α 20 ng/ml, antibody 1 µg/ml), set 1-1” value is 45.1%; the “invaded cells relative to TGF-α alone, % of OD (AGS, TGF-α 20 ng/ml, antibody 1 µg/ml), set 1-2” value stood at 41.6%; the “invaded cells relative to TGF-α alone, % of OD (AGS, TGF-α 20 ng/ml, antibody 1 µg/ml), set 2-1” value amounted to 31.2%. Moreover, in test [5], the “invaded cells relative to TGF-α alone, % of OD (AGS, TGF-α 20 ng/ml, antibody 1 µg/ml), set 2-2” value is 33.8%; the “invaded cells relative to TGF-α alone, % of OD (AGS, TGF-α 20 ng/ml, antibody 1 µg/ml), set 3-1” value turned out to be 57.9%; the “invaded cells relative to TGF-α alone, % of OD (AGS, TGF-α 20 ng/ml, antibody 1 µg/ml), set 3-2” value amounted to 54.8%. In test [6], the “invaded cells relative to TGF-α alone, % of OD (NUGC3, TGF-α 50 ng/ml, antibody 1 µg/ml), Average (%)” value was found to be 32.5%; the “invaded cells relative to TGF-α alone, % of OD (NUGC3, TGF-α 50 ng/ml, antibody 1 µg/ml), set 1-1” value turned out to be 31.5%; the “invaded cells relative to TGF-α alone, % of OD (NUGC3, TGF-α 50 ng/ml, antibody 1 µg/ml), set 1-2” value is 27.3%; the “invaded cells relative to TGF-α alone, % of OD (NUGC3, TGF-α 50 ng/ml, antibody 1 µg/ml), set 2-1” value was determined as 31.4%. In addition, in test [6], the “invaded cells relative to TGF-α alone, % of OD (NUGC3, TGF-α 50 ng/ml, antibody 1 µg/ml), set 2-2” value came out at 30%; the “invaded cells relative to TGF-α alone, % of OD (NUGC3, TGF-α 50 ng/ml, antibody 1 µg/ml), set 3-1” value is 36.4%; the “invaded cells relative to TGF-α alone, % of OD (NUGC3, TGF-α 50 ng/ml, antibody 1 µg/ml), set 3-2” value was determined as 38.3%. In test [7], the “invaded cells relative to AREG alone, % of OD (NUGC3, AREG 500 ng/ml, antibody 1 µg/ml), Average (%)” value was determined as 54.8%; the “invaded cells relative to AREG alone, % of OD (NUGC3, AREG 500 ng/ml, antibody 1 µg/ml), set 1-1” value turned out to be 40.2%; the “invaded cells relative to AREG alone, % of OD (NUGC3, AREG 500 ng/ml, antibody 1 µg/ml), set 1-2” value is 50.7%; the “invaded cells relative to AREG alone, % of OD (NUGC3, AREG 500 ng/ml, antibody 1 µg/ml), set 2-1” value turned out to be 59.8%. Besides, in test [7], the “invaded cells relative to AREG alone, % of OD (NUGC3, AREG 500 ng/ml, antibody 1 µg/ml), set 2-2” value is 59.6%; the “invaded cells relative to AREG alone, % of OD (NUGC3, AREG 500 ng/ml, antibody 1 µg/ml), set 3-1” value is 62.4%; the “invaded cells relative to AREG alone, % of OD (NUGC3, AREG 500 ng/ml, antibody 1 µg/ml), set 3-2” value stood at 56.1%.
